T1: full-length She1 (She1-FL), HALO-tagged (S. cerevisiae), P38200
T1 chain: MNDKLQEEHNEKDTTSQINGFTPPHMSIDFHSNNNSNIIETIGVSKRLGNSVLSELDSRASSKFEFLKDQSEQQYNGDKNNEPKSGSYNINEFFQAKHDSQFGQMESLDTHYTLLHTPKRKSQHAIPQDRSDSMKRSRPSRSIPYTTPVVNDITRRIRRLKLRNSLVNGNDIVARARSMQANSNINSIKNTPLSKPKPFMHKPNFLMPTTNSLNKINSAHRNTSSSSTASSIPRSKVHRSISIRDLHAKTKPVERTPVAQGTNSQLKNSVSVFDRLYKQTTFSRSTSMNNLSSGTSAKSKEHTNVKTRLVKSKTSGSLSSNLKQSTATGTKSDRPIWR


What was measured:
[1] = molecular target: Taxol-stabilized microtubules polymerised from bovine tubulin (bovine) (UniProt Q6B856); assay: wide-field fluorescence microscopy of labelled protein on microtubules; 1 µM TMR-labeled She1 construct preincubated with 60 nM Taxol-stabilized HiLyte 488–labeled MTs, room temperature, 20 min, MAP-binding buffer with 150 mM KCl and 20 µM Taxol; MTs held in a flow chamber by antitubulin antibody; bound TMR fluorescence on the MT measured
[2] = molecular target: T1, full-length She1 (She1-FL), HALO-tagged …; assay: negative-stain EM; purified She1-FL at 4 µM on carbon-coated grids, 0.75% uranyl formate; conditions: remark: other sources report otherwise
[3] = molecular target: Taxol-stabilized microtubules polymerised from bovine tubulin (bovine) (UniProt Q6B856); assay: co-sedimentation; low-speed microfuge pelleting (15,871 g, 10 min, room temperature); 5 µM She1-C–TMR with varying concentrations of Taxol-stabilized MTs, MAP buffer with 50 mM KCl; quadratic fit, apparent dissociation constant; stoichiometry from the saturation point

| mean TMR fluorescence on MTs [1] | stoichiometry N [2] | stoichiometry N (She1-C–TMR per tubulin) [3] | Binder |
| --- | --- | --- | --- |
| 22000 a.u. | – | – | full-length She1 (She1-FL), HALO-tagged (natural protein, HaloTag TMR ligand (MT-binding and cross-linking assays) or HaloTag Alexa Fluor 488 ligand (ultracentrifugation) on the HALO tag) MNDKLQEEHNEKDTTSQINGFTPPHMSIDFHSNNNSNIIETIGVSKRLGNSVLSELDSRASSKFEFLKDQSEQQYNGDKNNEPKSGSYNINEFFQAKHDSQFGQMESLDTHYTLLHTPKRKSQHAIPQDRSDSMKRSRPSRSIPYTTPVVNDITRRIRRLKLRNSLVNGNDIVARARSMQANSNINSIKNTPLSKPKPFMHKPNFLMPTTNSLNKINSAHRNTSSSSTASSIPRSKVHRSISIRDLHAKTKPVERTPVAQGTNSQLKNSVSVFDRLYKQTTFSRSTSMNNLSSGTSAKSKEHTNVKTRLVKSKTSGSLSSNLKQSTATGTKSDRPIWR |
| – | 6 | – | full-length She1 (She1-FL), HALO-tagged, P38200 1-338 (natural protein, here or on the partner: HaloTag TMR ligand (MT-binding and cross-linking assays) or HaloTag Alexa Fluor 488 ligand (ultracentrifugation) on the HALO tag; HaloTag TMR ligand (MT-binding and cross-linking assays) or HaloTag Alexa Fluor 488 ligand (ultracentrifugation) on the HALO tag) MNDKLQEEHNEKDTTSQINGFTPPHMSIDFHSNNNSNIIETIGVSKRLGNSVLSELDSRASSKFEFLKDQSEQQYNGDKNNEPKSGSYNINEFFQAKHDSQFGQMESLDTHYTLLHTPKRKSQHAIPQDRSDSMKRSRPSRSIPYTTPVVNDITRRIRRLKLRNSLVNGNDIVARARSMQANSNINSIKNTPLSKPKPFMHKPNFLMPTTNSLNKINSAHRNTSSSSTASSIPRSKVHRSISIRDLHAKTKPVERTPVAQGTNSQLKNSVSVFDRLYKQTTFSRSTSMNNLSSGTSAKSKEHTNVKTRLVKSKTSGSLSSNLKQSTATGTKSDRPIWR |
| 21000 a.u. | – | 1 | She1-C, C-terminal 194–338 aa of She1, HALO-tagged (domain or fragment, HaloTag TMR ligand on the HALO tag where labelled) SKPKPFMHKPNFLMPTTNSLNKINSAHRNTSSSSTASSIPRSKVHRSISIRDLHAKTKPVERTPVAQGTNSQLKNSVSVFDRLYKQTTFSRSTSMNNLSSGTSAKSKEHTNVKTRLVKSKTSGSLSSNLKQSTATGTKSDRPIWR |
